Measurements: publication PMC6262395, “A Rhodococcal Transcriptional Regulatory Mechanism Detects the Common Lactone Ring of AHL Quorum-Sensing Signals and Triggers the Quorum-Quenching Response” (Frontiers in Microbiology, 2018)

Key:
[1] = target: T1, QsdR (TetR-family repressor) (Rhodococcus erythropolis R138) (UniProt A0A0C2W9F0); assay: competition; details: LightShift Chemiluminescent EMSA Kit (Thermo Scientific) as per manufacturer, 20 ul reaction; buffer, salt, pH and temperature not stated
T1 sequence: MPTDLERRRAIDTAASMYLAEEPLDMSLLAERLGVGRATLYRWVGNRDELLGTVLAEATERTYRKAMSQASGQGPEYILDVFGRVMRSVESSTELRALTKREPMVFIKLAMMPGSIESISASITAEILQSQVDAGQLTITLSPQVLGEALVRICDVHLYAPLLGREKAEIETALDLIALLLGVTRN

[2] = target: T1, QsdR (TetR-family repressor) (Rhodococcus erythropolis R138); assay: EMSA; details: LightShift Chemiluminescent EMSA Kit (Thermo Scientific) as per manufacturer, 20 ul reaction; buffer, salt, pH and temperature not stated
QsdR = target: T2, QsdR (Rhodococcus erythropolis, UniProt A0A0C2W9F0); assay: EMSA, release of QsdR from biotin-labelled qsdR-qsdA intergenic DNA; details: ligand/QsdR molecule ratio 0.1 to 100; 2 μg His-tagged QsdR, 0.4 ng DNA; effector that relieves DNA binding
T2 construct: gene I3517_23075; full-length qsdR ORF in pET19, His-tagged (tag kept), expressed in E. coli BL21(DE3), Ni-NTA; 186 residues, asymmetric dimer
T2 sequence (A0A0C2W9F0 1-186): T1 sequence

| Molecule | binding [2] | also measured |
| --- | --- | --- |
| GGTAGGCATCGGGACATTCTCTCCGGTTGTCCGGTACTGCACAATTTCGGCGGTCGAACAGAGGTGGGCTTCGGGTGGCTCGAGCCTATTGACGAACCAAGCGACGTGAGACACACTAGCTCATTGTCTCATGTTAGTGATGGCGATCACAGTCAGGGGTTCGATCGATGAG (double strand) [unlabeled qsdR-qsdA intergenic competitor] | – | binding [1]: binds |
| GGTAGGCATCGGGACATTCTCTCCGGTTGTCCGGTACTGCACAATTTCGGCGGTCGAACAGAGGTGGGCTTCGGGTGGCTCGAGCCTATTGACGAACCAAGCGACGTGAGACACACTAGCTCATTGTCTCATGTTAGTGATGGCGATCACAGTCAGGGGTTCGATCGATGAG (double strand) | binds | – |
| N[C@H]1CCOC1=O [HSL, homoserine lactone] | – | EMSA, release of QsdR from biotin-labelled qsdR-qsdA intergenic DNA (QsdR): Addition of increased amounts of HSL induced a proportional increase in free DNA |
| CATTCCTCAAGTGCGCCATCGAAGAACCTGGTCTGACTCCCGGTGTCGAGCGTGTGATGCGAGCGGTCGGTCAGGCGCAGGTCGAAACCGGGGTACCGATCACGGTTCACACGAACCCGCACACGGAATCGGGCCTCGTTGCGCAGAAGGTTCTGGCCGAGGAAGGTGCAGATCTGA (double strand) [qsdA internal fragment (negative control)] | no binding | – |
